Measured values reported in patent US20230391891A1 (SYNTHEKINE, published 2023).

T1: extracellular domain of mIL10Rb (mouse, UniProt Q61190 20-220)
T1 construct: also called mIL10Rb ECD; murine IL10Rb
T1 sequence: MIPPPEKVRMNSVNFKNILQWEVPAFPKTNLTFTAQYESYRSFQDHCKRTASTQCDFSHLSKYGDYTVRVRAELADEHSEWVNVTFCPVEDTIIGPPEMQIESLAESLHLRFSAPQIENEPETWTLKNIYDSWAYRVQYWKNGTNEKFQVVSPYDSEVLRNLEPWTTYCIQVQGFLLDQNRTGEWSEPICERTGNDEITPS

T2: extracellular domain of hIL10Rb (human, UniProt Q08334 20-220)
T2 construct: also called hIL10Rb ECD; human IL10Rb
T2 sequence: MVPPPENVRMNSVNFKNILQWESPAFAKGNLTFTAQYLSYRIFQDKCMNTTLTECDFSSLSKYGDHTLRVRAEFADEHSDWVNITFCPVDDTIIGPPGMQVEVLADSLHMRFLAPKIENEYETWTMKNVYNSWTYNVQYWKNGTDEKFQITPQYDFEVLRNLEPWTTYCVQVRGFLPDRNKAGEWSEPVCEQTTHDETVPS


How the values were obtained:
[1] = target: T1, extracellular domain of mIL10Rb; test: flow cytometry, cross-reactivity
[2] = target: T2, extracellular domain of hIL10Rb; test: flow cytometry

binding result [1] | binding result [2] | Binder
binds | binds | hIL10Rb_VHH-4 (VHH, anti-hIL10Rb camel VHH) VHH: QVQLQESGGGSIQAGGSLRLSCAASRYLYSIDYMAWFRQSPGKEREPVAVIYTASGATFYPDSVKGRFTISQDNAKMTVYLQMNSLKSEDTAMYYCAAVRKTDSYLFDAQSFTYWGQGTQVTVSS
binds | binds | hIL10Rb_VHH-6 (VHH, anti-hIL10Rb camel VHH) VHH: QVQLQESGGGSIQAGGSLTLSCAASRDLYSTNYVAWFRQSPGKEREAVAVIYTASGATLYSDSVKGRFTISQDNAKMTVYLQMNSLKSEDTAMYYCAAVRKTGHYLFDAQSFTYWGQGTQVTVSS
 | binds | hIL10Rb_VHH-2 (VHH, anti-hIL10Rb camel VHH) VHH: QVQLQESGGGSVQAGGSLRLSCAASGYTYSSYCMGWFRQAPGKEREGVAAIDSDGSTRYADSVKGRFTISKDNAKNTLYLQMNSLKPEDTAMYYCAAEPYCSGGYKRTMVAEFGYWGQGTQVTVSS
 | binds | hIL10Rb_VHH-23 (VHH, anti-hIL10Rb camel VHH) VHH: QVQLQESGGGSVQAGGSLRLSCAASGYTYSSYCMGWFRQAPGKEREGVAAIDSDGSTRYADSVKGRFTISKDNAKKILYLQMNSLKVEDTAMYYCAAEPYCSGGYKRTMVAEFGFWGQGTQVTVSS
 | binds | hIL10Rb_VHH-7 (VHH, anti-hIL10Rb camel VHH) VHH: QVQLQESGGGSVQAGGSLRLSCAASGYTYSSGCMGWFRQAPGKEREGVATINSDGSTNYADSVKGRFTISKDNAKNTLYLQMNSLKPEDTAMYYCAAEPYCSGGYPRWSVAEFGYWGQGTQVTVSS
 | binds | hIL10Rb_VHH-11 (VHH, anti-hIL10Rb camel VHH) VHH: QVQLQESGGGSVQAGGSLRLSCAASGYTYSSYCMGWFRQAPGKGREGVAAIDSDGSTRYADSVKGRFTISKDNAKNTLYLQMNSLKPEDTAMYYCAAEPYCSGGYKRTMVAEFGYWGQGTQVTVSS
 | binds | hIL10Rb_VHH-8 (VHH, anti-hIL10Rb camel VHH) VHH: QVQLQESGGGSVQAGGSLRLSCAASGYSYSSYCMGWFRQAPGKEREGVAAIASDGSTSYADSVKGRFAISKDNAKNTLYLQMASLKPEDTAMYYCAAEPWCTGGYSRLTPAEYGYWGQGTQVTVSS
 | binds | hIL10Rb_VHH-9 (VHH, anti-hIL10Rb camel VHH) VHH: QVQLQESGGGLVQPGGSLRLSCAASGYTYSSGCMGWFRQAPGKEREGVATINSDGSTNYADSVKGRFTISKDNAKNTLYLQMNSLKPEDTAMYYCAAEPYCSGGYPRWSVAEFGYWGQGTQVTVSS
 | binds | hIL10Rb_VHH-1 (VHH, anti-hIL10Rb camel VHH) VHH: QVQLQESGGGSVQAGGSLRLSCAASGYTYSSGCMGWFRQAPGKEREAVAAINSDGSTSYADSVKGRFTISKDNAKNTLYLQMNSLKPEDTAMYYCAAEPYCSGGYPRWSVAEFGYWGQGTQVTVSS
 | binds | hIL10Rb_VHH-18 (VHH, anti-hIL10Rb camel VHH) VHH: QVQLQESGGGSVQAGGSLRLSCAASGDTYSSYCMGWFRQAPGKEREGVAFIDSDGSTRYADSVEGRFTISKDNAKNTLYLQMNSLKPEDTAMYYCAAEPYCSGGYHRKEMAEFGYWGQGTQVTVSS
 | binds | hIL10Rb_VHH-14 (VHH, anti-hIL10Rb camel VHH) VHH: QVQLQESGGGSVQAGGSLRLSCAASGYTYSSGCMGWFRQAPGKEREGVATINSDGSTNYADSVKGRFTISKDNAKNTLYLQMNSLKPEDTGMYYCAAEPYCSGGYPRWSVAEFGYWGQGTQVTVSS
binds | binds | hIL10Rb_VHH-26 (VHH, anti-hIL10Rb camel VHH) VHH: QVQLQESGGGSVQAGGSLRLSCAASGYSYSSYCMGWFRQAPGKEREGVATIDSDGMTRYADSVKGRFTISKDNAKNTLYLQMNSLKPEDTAMYYCAAPLYDCDSGAVGRNPPYWGQGTQVTVSS
 | binds | hIL10Rb_VHH-27 (VHH, anti-hIL10Rb camel VHH) VHH: QVQLQESGGGSVQTGGSLRLSCAASGYTYLRGCMGWFRQAPGKEREGVAVMDVVGDRRSYIDSVKGRFTISRDNAANSVYLQMDNLKPEDTAMYYCTAGPNCVGWRSGLDYWGQGTQVTVSS
binds | binds | hIL10Rb_VHH-16 (VHH, anti-hIL10Rb camel VHH) VHH: QVQLQESGGGSVEAGGSLRLSCAASGYTHSSYCMGWFRQAPGKEREGVAAIDVDGSTTYADSVKGRFTISKDNAKNTLYLQMNSLKPEDTGMYYCAAEFADCSSNYFLPPGAVRYWGQGTQVTVSS
 | binds | hIL10Rb_VHH-15 (VHH, anti-hIL10Rb camel VHH) VHH: QVQLQESGGGSVQAGGSLRLSCTVSRYTASVNYMGWFRQAPGKEREGVATIFTGAGTTYYANSVKGRFTISRDNAKNTAYLQMNSLKPEDTAIYYCAVDFRGGLLYRPAYEYTYRGQGTQVTVSS
 | binds | hIL10Rb_VHH-17 (VHH, anti-hIL10Rb camel VHH) VHH: QVQLQESGGGSVQAGGSLRLSCTVSRYTASVNYMGWFRQAPGKEREGVATIFTGAGTTYYANSVKGRFTISRDNAKNTAYLQMNSLKPEDTAMYYCAVDFRGGLLYRPAYEYTYRGQGTQVTVSS
binds | binds | hIL10Rb_VHH-12 (VHH, anti-hIL10Rb camel VHH) VHH: QVQLQESGGGSVQAGGSLRLSCAASGYTYSSYCMGWFRQAPGKEREGVAHIDSDGSTSYADSVKGRFTISKDNAKNTLYLQMNSLKPEDTAMYYCAADPIPGPGYCDGGPNKYWGQGTQVTVSS
 | binds | hIL10Rb_VHH-5 (VHH, anti-hIL10Rb camel VHH) VHH: QVQLQESGGGLVQPGGSLRLSCAASGYTYSSYCMGWFRQAPGKEREGVAHIDSDGSTTYADSVKGRFTISKDNAKNTLYLQMNSLKPEDTAMYYCAADPIPGPGYCDGGPNKYWGQGTQVTVSS
binds | binds | hIL10Rb_VHH-20 (VHH, anti-hIL10Rb camel VHH) VHH: QVQLQESGGGSVQAGGSLRLSCAASGYTYSSYCMGWFRQAPGKEREGVAHIDSDGSTTYADSVKGRFAISKDNAKNTLYLQMNSLKPEDTAMYYCAADPIPGPGYCDGGPNKYWGQGTQVTVSS
binds | binds | hIL10Rb_VHH-25 (VHH, anti-hIL10Rb camel VHH) VHH: QVQLQESGGGSVQAGGSLRLSCAASGYTYSSYCMGWFRQAPGKEREGIAHIDSDGSTTYADSVKGRFTISKDNAKNTLYLQMNSLKPEDTAMYYCAADPIPGPGYCDGGPNNYWGQGTQVTVSS
binds | binds | hIL10Rb_VHH-22 (VHH, anti-hIL10Rb camel VHH) VHH: QVQLQESGGGSVQAGGSLRLSCAASGYTDSRYCMGWFRKAPGKEREGVAHIDSDGSTSYADSVKGRFTISKDNAKNTLYLQMNSLKPEDTAMYYCAADPIPGPGYCDGGPNKYWGQGTQVTVSS
binds | binds | hIL10Rb_VHH-19 (VHH, anti-hIL10Rb camel VHH) VHH: QVQLQESGGGSVQAGGSLRLSCAASGYTYSSYCMGWFRQAPGKEREGVAHIDSDGSTSYADSVKGRFTISKDNAKNTLYLQMNSLKPEDTAMYYCAADPIPGPGYCDGGPNKYRGQGTQVTVSS
binds | binds | hIL10Rb_VHH-13 (VHH, anti-hIL10Rb camel VHH) VHH: QVQLQESGGGSVQAGGSLRLSCAASGYTYSSYCMGWFRQAPGKEREGVAHIDSDGSTSYADSVKGRFTISKDNAKNTLYLQMNSLKPEDTAMYYCAADPIPGPGYCDGGPNNYWGQGTQVTVSS
binds | binds | hIL10Rb_VHH-10 (VHH, anti-hIL10Rb camel VHH) VHH: QVQLQESGGGLVQPGGSLRLSCAASGYTYSSYCMGWFRQAPGKEREGVAHIDSDGSTTYADSVKGRFAISKDNAKNTLYLQMNSLKPEDTAMYYCAADPIPGPGYCDGGPNKYWGQGTQVTVSS
binds | binds | hIL10Rb_VHH-24 (VHH, anti-hIL10Rb camel VHH) VHH: QVQLQESGGGSVQAGGSLKLSCAASGYTYSSYCMGWFRQAPGKEREGVAHIDSDGSTTYADSVKGRFTISKDNAKNTLYLQMNSLKPEDTAMYYCAADPIPGPGYCDGGPNNYWGQGTQVTVSS
binds | binds | hIL10Rb_VHH-3 (VHH, anti-hIL10Rb camel VHH) VHH: QVQLQESGGGSVQAGGSLRLSCAASRYTYNSYCMGWFRQAPGKEREGVATIDSDGMTRYADSVKGRFTISKDNAKNTLYLQMNSLKPEDTAMYYCAADADCTIAAMTTNPLGQGTQVTVSS
